From the RNAGym collection of RNA variant scans (doi:10.1073/pnas.2313332121)

B1: TPR t1 (parent)
chain: GACCAAUCUGCCCUCAGAGCUCGAGAACAUCUUCGGAUGCAGAGGAGGCAGGCUUCGGUGGCGCGAUAGCGCCAACGUCCUCAACCUCCAAUGCAUCCCACCACAUGAUGAUGCCUGAAGAGCCUUGGUUUUUUG

Variants of: B1
Assay: polymerase ribozyme fitness, log enrichment relative to wild type (log ratio); higher = more active; in vitro selection for triplet polymerase activity
In short: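 A heterodimeric triplet polymerase ribozyme had each of its subunits mutagenized by PCR into a library, which was transcribed. One round of in vitro selection, done in triplicate, annealed each library with a biotinylated primer, its partner subunit and triplets, then incubated it frozen at −7 °C before gel excision of extended constructs, streptavidin-bead capture and RT-PCR. Fitness is the logarithm of genotype enrichment relative to wild-type enrichment, based on Illumina sequencing of inputs and outputs and inverse-variance-weighted replicate averages. A base-2 logarithm is used, and genotypes were kept only with ≥10 input reads and ≥1 read per output.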

Variant | polymerase ribozyme fitness (log ratio)
GACCAAUCUGCCCUUAGAGCUCGAGAACAUCUUCGGAUGCAGAGGAGGCAGGCUUCGGUGACGCGAUAGCGCCAACGUCCUCAACCUCAAAUGCAUCCCACCACAUGAUGUUGCCUGAAGAGCCUUGGUUUUUUG [C15U G61A C89A A111U] | -6.53
GACCAAUCUGCCCUCCGAGCUCGAGAACAUCUUCGGAUGCAGAUGAGGCAGGCUUCGGUGGCGCGAUAGCGCCAACGUCCUCAACCUCCAAUGCAUCCCACCACAUGAUGAUGCCUGAAGAGCCGUGGUUUUUUG [A16C G44U U125G] | -4.42
GACCAAUCUGCCCUCCGAGCUCGAGAACAUCUUCGGAUGCAGACGAGGUAGGCUUCGGUGGCGCGAUAGCGCCAACGUCCUCAACCUCCAAUGCAUCCCACCACAUGAUGAUGCCUGAAGAGCCUUGGUUUUUUG [A16C G44C C49U] | -3.94
GACCAAUCUGCCCUUAGAGCUCGAGAACAUCCUCGGAUGCAGAGGAGGCAGGCUUCGGUGGCGCGAUAGCGCCAACGUCCUCAACCUCAAAUGCAUCCCACCACAUGAUGAUGCCUGAGGAGCCUUGCUUUUUUG [C15U U32C C89A A119G G128C] | -3.29
GACCAAUCUGCCCUUAGAGCUCGAGAACAUCUUCGGAUGCAGAGGAGGCAGGCUUCGGUGGCACGAUAGCGCCAACGUCCUCAACCUCCAAUGCAUCCCACCACAUGAUGAUGCCUGAAGAGCCUUGGUUUUUUG [C15U G63A] | -2.04
GACCAAUCUGCCCUCCGAGCUCGAGAACAUCUUCGGAUGCAGAUGAGGCAGGCUUCGGUGGCGCGAUAGCGCCAACGCCCUCAACCUCCAAUGCAUCCCACCACAUGAUGAUGCCUGAAGAGCCUUGGUUUUUUG [A16C G44U U78C] | -4.35
GACCAAUCUGCCCUUAGAGCUCGAGAACAUCUUCGGAUGCAGAGGAGGCAGGCUUCGGUGCCGCGAUAGCGCCAACGUCCUCAACCUCCAAUGCAUCCCACCACAUGAUGAUGCCUGAAGAGCCUUGGUUUUUUG [C15U G61C] | -2.32
GACCAAUCUGCCCUUAGAGCUCGAGAACAUCUUCGGAUGCAGAGGAGGCAGGCUUCGGUGUCGCGAUAGCGCCAACGUCCUCAACCUCCAAUGCAUCCCACCACAUGAUGAUGCCUGAAGAGCCUUGGUUUUUUG [C15U G61U] | -0.638
GACCAAUCUGCCCUCCGAGCUCGAGAACAUCUUCGGAUGCAGAGGUGGCAGGCUUCGGUGGCGCGAUAGCGCCAACGUCCUCAACCUCCAAUGCAUCCCACCACAUGAUGAUGCCUAAAGAGCCUUGGUUUUGUG [A16C A46U G117A U133G] | -6.47
GACCAAUCUGCCCUUAGAGCUCGAGAACAUCUUCGGAUGCAGAGGAGGCAGGCCUCGGUGGCGCGAUAGCGCUAACGUCCUCAACCUCCAAUGCAUCCCACCACAUGAUGAUACCUGAAGAGCGUUGGUUUUUUG [C15U U54C C73U G113A C124G] | -0.579
GACCAAUCUGCCCUCCGAGCUCGAGAACAUCUUCGGAUGCAGAGGAGGAAGGCUUCGGUGGCGCGAUAGCGCCAACGUCCUCAACCUCCAAUGAAUCCCACCACAUGAUGAUGCCUGAAGAGCAUUGGUUUUUUG [A16C C49A C94A C124A] | -0.594
GACCAAUCUGCCCUUAGAGCUCGAGAACAUCUUCGGAUGCAGAGGAGGCAGGCUUCGGUGGCACGAUAGCGCCAACGUACUCAACCUCCAAUGCAUCCCACCACAUGAUGAGGCCUGAAGAGCCUUGGUUUUUUG [C15U G63A C79A U112G] | -5.66
GACCAAUCUGCCCUUAGAGCUCGAGAACAUCUUCGGAUGCAGAGGAGGCAGACUUCGGUGGCGCGAUAGCGCCAACGUCCUCAACCUCCAAUGCAUCCCACGACAUGAUGAUGCCUGAAGAGCAUUGGUUUUUUG [C15U G52A C102G C124A] | -5.21
GACCAAUCUGCCCUUAGAGCUCGAGAACAUCUUCGGAUGCAGAGGAGGCAGGCUUCGGUGCCGCGAUAGCGCCAACGUCCUCAACCUCCAAUGCAUCCCACCACAUGAUGAUGCCUGAAGAGCCAUGGUUUUUUG [C15U G61C U125A] | -2.92
GACCAAUCUGCCCUUAGAGCUCGAGAACAUCUUCGGAUGCAGAGGAGGCAGGCUUCAGUGGCGCGAUAGCGCCAACGUCCUCAACCUCCAAUGCAUCCCACCACAUGAUGAUGCCUUAAGAGCCUUGGUUUUUUG [C15U G57A G117U] | -3.3
GACCAAUCUGCCCUUAGAGCUCGAGAACAUCUUCGGAUGCAGAGGAGGCAGGCUUCGGUGGCUCGAUAGCGCCAACGACCUCAACCUCCAAUGCAUCCCACCACAUGAUGAUGCCUGAAGAGCCUUCGUUUUUUG [C15U G63U U78A G127C] | -4.1
GACCAAUCUGCCCUCCGAGCUCCAGAACAUCUUCGGAUGCAGAGGAGGCAGGCUUCGGUGCCACGAUAGCGCCAACGUCCUCAACCACCAAUGCAUCCCACCACGUGAUCAUGCCUGAAGAGCCUUGGUUUUUUG [A16C G23C G61C G63A U87A A105G G110C] | -7.62
GACCAAUCUGCCCUUAGAGCUCGAGAACAUCUUCGGAUGCAGAGGAGGCAGGCUUCUGUGGCGCGAUAGCGGCAACGUCCGCAACCUCCAAUGCAUCCCACCACAUGAUGAUGCCUGAAGAGCCUUGGUUUUUUG [C15U G57U C72G U81G] | -2.79
GACCAAUCUGCCCUCCGAGCUCGAGAACAUCUUCGGAUGCAGAGGAGGCAGCCUUCGGUGGUGCGAUAGCGCCAACGUCCUCAACCUCCAAUGCAUCCCACCACAUGAUGAUGCCUGAAGAGCCUUGGUUUUUUG [A16C G52C C62U] | -3.32
GACCAAUCUGCCCUCCGAGCUCGAGAACAUCUUCGGAUGCAGAGGAGGCAGGCUUCGGUGGCGCGAUAGCGCCAACGUCCUCAACCUCCAAUGCAUCCCACCACAUGAUGAUGCCUGAAGAGCAUUGGUUUUUUG [A16C C124A] | 0.87
GACCAAUCUGCCCUCCGAGCUCGAGAACAUCUUCGGAUGCAGAGGAGGCAGGCUUCUGUGGCGCGAUAGCUCCAACGUCCUCAACCACCAAUGCAUCCCACCACAUGAUGAUGCCUGAAGAGCCUUCGUUUUUUG [A16C G57U G71U U87A G127C] | -6.26

Variant | polymerase ribozyme fitness (log ratio)
GACCAAUCUGCCCUUAGAGCUCGAGAACAUCUUCGGAUGCAGAGGAGGCAGGCCUCGGUGGCGCGAUAGCGUCAACGUCCUCAACCUCCAAUGCAUCCCACCACAUGAUGAUGCCUGAAGAGCCUUGGUUUUUUG [C15U U54C C72U] | -1.39
GACCAAUCUGCCCUCCGAGCUCGAGAACAUCUUCGGAUGCAGAGGAGGCAGGCUUUGGUGGCGCGAUAUCGCCAACGUCCUCAACCUCCAAUGCAUCCCACCACAUGAUGAUGCCUGAAAAGCCUUGGUUUUUUG [A16C C56U G69U G120A] | -3.38
GACCAAUCUGCCCUCCGAGGUCGAGAACAUCUUCGGAUGCAGAGGAGGCAGGCUUCGGGGGCGCGAUAGCGCCAACGUCCUCAACCUCCAAUGCAUCCCACCACAAGAUGAUACCUGAAGAGCCUUGGUUUUUUG [A16C C20G U59G U106A G113A] | -5.4
GACCAAUCUGCCCUUAGAGCUCGAGAACAUCUUCGGAUGCAGAGGAGGCAGACUUCGGUGGCGCGAUAGCGCCAACGUCCUCAACCUCCAGUGCAUCCCACCACAUGAUGAUGCCUGAAGAGCCUUGGUUUUUUG [C15U G52A A91G] | -2.95
GACCAAUCUGCCCUCCGAGCUCGAGAACAUCUUCGGAUGCAGAGGAGGCAGGCUUGGGUGGCGCGAUAGCGCCAACGUCCUCAACCUCCAAUGCAUCCCACCACAUGAUGAUGCCUGAAGAGCCUUGGUUUUUUG [A16C C56G] | -2.73
GACCAAUCUGCCCUCCGAGCUCGAGAACAUCUUCGGAUGCAGAGGAGGCAGGCUUUGGUGGCGCGAUAGCGCCAACGUCCUCAACCUCCAAUGCAUCCCACCACAUGAUGAUGCCUGAAGAGCCUUGGUUUUUUG [A16C C56U] | -2
GACCAAUCUGCCCUCCGAGCUCGAGAACAUCUUCGGAUGCAGAGGAGGCAGGCUUAGGUGGCGCGAUAGCGCCAACGUCCUCAACCUCCAAUGCAUCCCACCACAUGAUGAUGCCUGAAGAGCCUUGGUUUUUUG [A16C C56A] | -2.44
GACCAAUCUGCCCUCCGAGCUCGAGAACAUCUUCGGAUGCAGAGGAGGCGGGCUUCGGUGGCGCGAUAGCGCCAACGUCCUCAACCUCCAAUGCAUCCCACCACAUGAUGAUGCCUGAAGAGCCUUGGUUUUUUG [A16C A50G] | -2.32
GACCAAUCUGCCCUUAGAGCUCGAGAACAUCUUCGGAUGCAGAGGAGGCAGGCUUCGGUGGCGCGAUAUCGCCAACGUCCUCAACCUCCAAUGCAUCCCACCACAUGAUGAUGCCUGAAGAGCCUUGGUUUUUUG [C15U G69U] | -1.38
GACCAAUCUGCCCUUAGAGCUCGAGAACAUCUUCGGAUGCAGAGGAGGCAGGCUUCGGUGGCGCGAUACCGCGAACGUCCUCAACCUCCAAUGAAUCCCACCACAUGAUGCUGCCUGAAGAGCCUUGGUUUUUUG [C15U G69C C73G C94A A111C] | -6.09
GACCAAUCUGCCCUUAGAGCUCGAGAACAUCUUCGGAUGCAGAGGAGGCAGGCUUCGGUGGCGCGAUAGCACCAACGUCCUCAACCUCCAAUGCAUCCCACAACAUGAUGAUGCCUGAAGAGCCUUGGUUUUUUG [C15U G71A C102A] | -5.13
GACCAAUCUGCCCUUAGAGCUCGAGAACAUCUUCGGAUGCAGAGGAGGCAGGCUUCGGUGGCGCGAUAGCGCCAACGCCCUCCACCUCCAAUGCAUACCAACACAUGAAGAUGCCUGAAGAGCCUUGGUUUUUUG [C15U U78C A83C C97A C101A U109A] | -5.99
GACCAAUCUGCCCUCCGAGCUCGAGAACAUCUUCGGAUGGAGAGGAGGCAGGCUUAGGUGGCGCGAUAGCGCCAACGUCCUCAACCUCCAAUGCAUCCCACCACAUGAUGAUGCCUGAAGAGCCUUGGUUUUUUG [A16C C40G C56A] | -3.75
GACCAAUCUGCCCUUAGAGCUCGAGAACAUCUUCGGAUGCAGAGGAGGCAGGCUUCGGUGGCGCGAUAGCCCCAACGUCGUCAACCUCCAAUGCAUCCCACCACAUGAUGAUGCCUGAAGAGCCUUGGUUUUUUG [C15U G71C C80G] | -6.22
GACCAAUCUGCCCUUAGAGCUCGAGAACAUCUUCGGAUGCAGAGGAGGCAGGCUUCGGUGGCCCGAUAGCGCCAACGUCCUCAACCUCCAAUGCAUCCCACCACAUGAUGAUGCCUGAAGAGCCUUGGCUUUUUG [C15U G63C U129C] | -2
GACCAAUCUGCCCUCCGAGCUCGAGAACAUCUUCGGAUGCAGAGGAGGCAGGGUUCGGUGGCUCGAUAGCGCCAACGUCCUCAACCUCCAAUGCAUCCCACCACAUGAUGAUGCCUGAAGAGCCUUGGUUUCUUG [A16C C53G G63U U132C] | -4
GACCAAUCUGCCCUUAGAGCUCGAGAACAUCUUCGGAUGCAGAGGAGGCAGACUUCGAUGGCGCGAUAGCGCCAACGUCCUCAACCUUCAAUGCAUCCCACCACAUGAUGAUGCUUGAAGAGCCUUGGUUUUUUG [C15U G52A G58A C88U C115U] | -4.34
GACCAAUCUGCCCUCCGAGCUCGAGAACAUCUUCGGAUGCAGAGGAGGCAGGCUUCGGUGGGGCGAUAGCGCCGACGUCCUCAACCUCCAAUGCAUCCCACCACAUGAUGAUGUCUGAAGAGCCUUGGUUUUUUG [A16C C62G A74G C114U] | -5.78
GACCAAUCUGCCCUCCGAGCUCGAGAACAUCUUCGGAUGCAGAGGAGGCAGACUUCGGUGGCGCGAUAGCGCCAACGUCCUCAACCUCCAAUGCAUCCCACCACAUGAUGAUGCCUGAGGAGCCUUGGUUUUUUG [A16C G52A A119G] | 0.273
GACCAAUCUGCCCUCCGAGCUCGAGAACAUCUUCGGAUGCAGAGGAUGCAGGCUUCGGUGGCGCGAUAGCGCCAACGUCCUCAACCUCCAAUGCAUCCCACCACAUGAUGAUGCCUGAUGAGCCUUGGUUUUUUG [A16C G47U A119U] | -5.65
GACCAAUCUGCCCUUAGAGCUCGAGAACAUCUUCGGAUGCAGAGGAGGCAGGCUUCGGUGGCACGAUAGCGCUAACGUCCUCAACCUCCCAUGCAUCCCACCACAUGAUUAUGCCUGAAGAGCCUUGGUUUUUUG [C15U G63A C73U A90C G110U] | -5.03
